The values that follow come from patent US20160017024A1 (Five Prime, published 2016).

Test [1] addresses full length human LTK with an HA tag at the C-terminus, expressed on transfected cells (human, UniProt P29376 17-864). As to the kind of experiment: cell-based or functional assay.
For another test, the target named is T1, Mouse LTK ECD-Fc (mouse).
T1 construct: also called mouse LTK ECD-Fc (human Fc)
The test is described as follows: SPR (Biacore T100), ECD-Fc captured on Protein A CM4 chip. The protocol: The kₐ, kd, and KD for binding of human FAM150A to human LTK ECD-Fc (SEQ ID NO: 23) and mouse LTK ECD-Fc (SEQ ID NO: 25) was determined as follows. Binding kinetics of FAM150A to human and mouse LTK ECD-Fc fusion proteins was determined using Biacore T100 SPR (GE Healthcare Life Sciences, Piscataway, N.J.). LTK ECD-Fc fusions were captured on a CM4 sensor chip immobilized with Protein A (Thermo Scientific, Rockford, Ill.). HBS-P (GE Healthcare Life Sciences, Piscataway, N.J.) was used as the running and dilution buffer. Capture levels of the ECD-Fc fusions were adjusted to approximately 300-500RU so that binding values would be greater than the levels of non-specific binding to the reference flow cell. FAM150A was injected at […] (100 nM, 33.3 nM, 11.1 nM, 3.7 nM, 1.2 nM, 0.41 nM, 0.13 nM, 0.046 nM and 0 nM) for 120 seconds. The association constant, dissociation constant, and affinity of FAM150A for LTK Fc-ECD fusions was calculated using the Biacore T100 Evaluation software package using the 1:1 binding model.

Chain of full length human LTK with an HA tag at the C-terminus, expressed on transfected cells (P29376 17-864): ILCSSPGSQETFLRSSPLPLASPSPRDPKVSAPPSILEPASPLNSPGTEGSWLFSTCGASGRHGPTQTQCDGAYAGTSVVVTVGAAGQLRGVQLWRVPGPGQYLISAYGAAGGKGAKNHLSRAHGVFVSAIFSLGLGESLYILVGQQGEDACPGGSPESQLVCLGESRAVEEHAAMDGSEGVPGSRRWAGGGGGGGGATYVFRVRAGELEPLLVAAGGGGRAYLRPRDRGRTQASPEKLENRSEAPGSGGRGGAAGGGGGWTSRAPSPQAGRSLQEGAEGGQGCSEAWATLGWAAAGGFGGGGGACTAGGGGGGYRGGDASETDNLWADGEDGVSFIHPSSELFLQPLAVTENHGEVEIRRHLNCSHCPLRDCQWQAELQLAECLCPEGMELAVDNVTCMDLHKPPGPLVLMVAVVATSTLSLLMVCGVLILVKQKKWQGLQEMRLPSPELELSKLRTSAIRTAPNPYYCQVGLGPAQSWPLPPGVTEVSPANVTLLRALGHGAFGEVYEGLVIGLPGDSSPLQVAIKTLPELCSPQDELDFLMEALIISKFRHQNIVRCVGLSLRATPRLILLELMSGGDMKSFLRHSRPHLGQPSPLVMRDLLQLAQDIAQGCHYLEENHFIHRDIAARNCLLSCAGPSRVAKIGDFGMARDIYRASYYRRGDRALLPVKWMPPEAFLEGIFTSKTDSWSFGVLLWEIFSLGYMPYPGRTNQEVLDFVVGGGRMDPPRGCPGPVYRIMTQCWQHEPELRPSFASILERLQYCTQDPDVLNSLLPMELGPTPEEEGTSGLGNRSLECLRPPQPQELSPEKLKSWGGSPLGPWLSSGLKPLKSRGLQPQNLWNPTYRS
T1 sequence (chain, as listed by the source limits assumed): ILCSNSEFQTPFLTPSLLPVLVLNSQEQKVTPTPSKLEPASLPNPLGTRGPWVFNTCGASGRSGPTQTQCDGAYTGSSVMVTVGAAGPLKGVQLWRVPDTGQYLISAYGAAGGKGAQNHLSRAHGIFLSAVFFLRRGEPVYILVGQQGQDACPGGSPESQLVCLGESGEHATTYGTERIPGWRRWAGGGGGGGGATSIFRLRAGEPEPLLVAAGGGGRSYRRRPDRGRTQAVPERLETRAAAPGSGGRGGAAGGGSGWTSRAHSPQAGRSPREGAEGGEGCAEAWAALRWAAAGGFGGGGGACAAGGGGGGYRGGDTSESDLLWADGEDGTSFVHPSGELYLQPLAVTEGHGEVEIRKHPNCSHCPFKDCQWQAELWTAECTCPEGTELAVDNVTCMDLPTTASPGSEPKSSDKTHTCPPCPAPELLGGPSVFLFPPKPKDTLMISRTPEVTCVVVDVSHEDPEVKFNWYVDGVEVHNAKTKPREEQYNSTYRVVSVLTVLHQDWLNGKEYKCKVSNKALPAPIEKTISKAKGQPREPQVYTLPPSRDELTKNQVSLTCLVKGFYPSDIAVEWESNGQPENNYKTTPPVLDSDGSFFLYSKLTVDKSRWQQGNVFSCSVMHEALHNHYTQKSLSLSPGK

B1: Human FAM150B (ligand)
chain: GAEPREPADGQALLRLVVELVQELRKHHSAEHKGLQLLGRDCALGRAEAAGLGPSPEQRVEIVPRDLRMKDKFLKHLTGPLYFSPKCSKHFHRLYHNTRDCTIPAYYKRCARLLTRLAVSPVCMEDKQ
Regarding B1, the “induction of LTK phosphorylation relative to an unrelated control protein” value in test [1] was above 2 fold.

B2: Human FAM150A (ligand)
chain: RPRGRRGARVTDKEPKPLLFLPAAGAGRTPSGSRSAEIFPRDSNLKDKFIKHFTGPVTFSPECSKHFHRLYYNTRECSTPAYYKRCARLLTRLAVSPLCSQT
notes: Expressed in HEK 293 6E cells (or HEK293T supernatant) and secreted
B2: in test [1], the “EC50 for FAM150A-induced LTK phosphorylation” value is 1.96 nM and the “induction of LTK phosphorylation relative to an unrelated control protein” value is above 20 fold. In the test with Mouse LTK ECD-Fc, the “fold lower affinity than to human LTK ECD-Fc” value was around 30 fold.
